This assay addresses T1, CFP-tagged hABHD5 (Human ABHD5-ECFP) (human), Q8WTS1.
T1 chain: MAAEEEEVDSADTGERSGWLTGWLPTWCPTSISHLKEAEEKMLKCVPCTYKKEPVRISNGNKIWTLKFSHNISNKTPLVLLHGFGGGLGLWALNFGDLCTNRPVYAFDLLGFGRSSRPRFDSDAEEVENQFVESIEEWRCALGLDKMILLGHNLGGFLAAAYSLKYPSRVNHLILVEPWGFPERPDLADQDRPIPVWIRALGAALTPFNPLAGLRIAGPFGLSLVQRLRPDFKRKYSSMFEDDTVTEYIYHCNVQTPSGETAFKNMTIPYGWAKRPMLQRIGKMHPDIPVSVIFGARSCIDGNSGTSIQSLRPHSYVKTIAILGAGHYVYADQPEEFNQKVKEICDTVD
The assay is described as follows: fluorescence cross-correlation spectroscopy (FCCS); live cell dual color FCCS in transfected cells loaded with oleic acid overnight; excitation focused into the center of the cytoplasm; Fc = fraction of diffusers that are multicolored clusters. The note with it: remark: other sources report otherwise.

B1: WT hPNPLA3-EYFP, Q9NST1 1-481 (natural protein)
chain: MYDAERGWSLSFAGCGFLGFYHVGATRCLSEHAPHLLRDARMLFGASAGALHCVGVLSGIPLEQTLQVLSDLVRKARSRNIGIFHPSFNLSKFLRQGLCKCLPANVHQLISGKIGISLTRVSDGENVLVSDFRSKDEVVDALVCSCFIPFYSGLIPPSFRGVRYVDGGVSDNVPFIDAKTTITVSPFYGEYDICPKVKSTNFLHVDITKLSLRLCTGNLYLLSRAFVPPDLKVLGEICLRGYLDAFRFLEEKGICNRPQPGLKSSSEGMDPEVAMPSWANMSLDSSPESAALAVRLEGDELLDHLRLSILPWDESILDTLSPRLATALSEEMKDKGGYMSKICNLLPIRIMSYVMLPCTLPVESAIAIVQRLVTWLPDMPDDVLWLQWVTSQVFTRVLMCLLPASRSQMPVSSQQASPCTPEQDWPCWTPCSPKGCPAETKAEATPRSILRSSLNFFLGNKVPAGAEGLSTFPSFSLEKSL
B1 showed a Fc (fraction of diffusers that are multicolored clusters of ABHD5 and PNPLA3) of 0.32; a percent of ABHD5 codiffusing with PNPLA3 of 24%; a percent of PNPLA3 codiffusing with ABHD5 of 78%.

For the origin of these results see PMC11849118.
